According to patent US20240117056A1 (IBIO, published 2024):

How the values were obtained:
[1] = biological target: T1, wild type human EGFR1 on cells (F98 EGFR1; wild type U87MG; wild type FaDu) (human, UniProt P00533 25-1210); assay: flow cytometry on F98 EGFR1 cells, anti-human IgG Fc Alexa Fluor 647, MFI
T1 construct: whole, on cells

[2] = biological target: T2, human EGFRvIII, purified recombinant protein (Acro Biosystems Cat #EGI-H52H4) (human, UniProt P00533 25-645); assay: ELISA, antigen coated at 1 ug/mL, anti-human IgG-HRP, n=3
T2 construct: Bought protein; the deletion must be applied; also called truncated human EGFRvIII; huEGFRvIII

[3] = biological target: T3, human EGFRvIII overexpressed on cells (F98npEGFRvIII, U87MG-EGFRvIII, FaDu-EGFRvIII) (human, UniProt P00533 25-1210); assay: flow cytometry, U87MG-EGFRvIII cells, n=3
T3 construct: whole, on cells; the vIII deletion must be applied; also called F98 EGFRvIII

[4] = biological target: T3, human EGFRvIII overexpressed on cells …; assay: cell-based or functional assay
[5] = biological target: T2, human EGFRvIII, purified recombinant …; assay: SPR (Carterra LSA), antibody captured on anti-human IgG, antigen injected, 1:1 Langmuir fit;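 note: EGFRvIII injected at five concentrations, fivefold serial dilution starting 500 nM, 5 min association then 15 min dissociation, double-referenced against interspot and buffer blank signals, global kinetic fit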
[6] = biological target: T3, human EGFRvIII overexpressed on cells …; assay: cell-based or functional assay; remark: listed apart in the source
[7] = biological target: T3, human EGFRvIII overexpressed on cells …; assay: flow cytometry, F98npEGFRvIII cells, n=3
[8] = biological target: T3, human EGFRvIII overexpressed on cells …; assay: flow cytometry, FaDu-EGFRvIII cells, n=3
[9] = biological target: T3, human EGFRvIII overexpressed on cells …; assay: cell-based or functional assay; remark: listed apart in the source
[10] = biological target: T4, human EGFR, purified recombinant protein (Acro Biosystems Cat #EGR-H5222) (human, UniProt P00533 25-645); assay: ELISA, plate coated with human EGFR1, anti-human IgG-HRP, OD450
T4 construct: Bought protein; also called EGFR1; full length human EGFR1

[11] = biological target: T1, wild type human EGFR1 on cells (F98 …); assay: flow cytometry on wild type U87MG cells, anti-human IgG Fc Alexa Fluor 647, MFI
[12] = biological target: T4, human EGFR, purified recombinant …; assay: SPR (Carterra LSA), antibody captured on anti-human IgG, EGFR1 injected in a 5-fold series from 500 nM
[13] = biological target: T4, human EGFR, purified recombinant …; assay: as above; remark: listed apart in the source

B1: SD-233883-afuc (antibody, V domains shown)
VH: EVQLQQFGAELVKPGASVKLSCKASGYTFTSYDINWVRQRPEQGLEWIGWIFPGDGTSKYNEKFKGKATLSTDKSSSTAYMQLSRLTIEDSAVYFCARRLGSHWGQGSTLTVSS
VL: DIVLTQSPASLAVSLGQRATISCKASQSVDSDGDSYMNWYQQKPGQPPKLLIYGASNLESGIPARFSGSGSGTDFSLNIHPVEEEDAATYYCQQSHEYPFTFGGGTKLEIK
notes: afucosylated, made in FUT8 knock-out CHO cells; also called chimera
binding result [1]: no binding
EC50 [2]: 0.144 nM
EC50 [3]: 4.05 nM
ADCC EC50 (nM), F98 EGFRvIII cells with PBMC [4]: 0.0082 nM
Kd [5]: 40 nM
koff [5]: 0.003 s⁻¹
kon [5]: 74000 M⁻¹ s⁻¹
ADCC EC50 (nM), U87MG-EGFRvIII cells with PBMC [6]: 0.0026 nM
EC50 [7]: 2.07 nM
EC50 [8]: 3.13 nM
ADCC EC50 (nM), FaDu-EGFRvIII cells with PBMC [9]: 0.0039 nM
binding result [10]: no binding

B2: SD-382591-afuc (antibody, V domains shown)
VH: EVQLVQSGAEVKKPGASVKVSCKASGYTFTSYDINWVRQAPGQGLEWMGWIFPGDGTSKYAQKFQGRVTMTTDTSTSTAYMELSSLRSEDTAVYYCARRLGSHWGQGTTVTVSS
VL: DIQLTQSPSSLSASVGDRVTITCKASQSVDSDGDSYMNWYQQKPGKAPKLLIYGASNLESGVPSRFSGSGSGTDFTLTISSLQPEDFATYYCQQSHEYPFTFGQGTKLEIK
notes: afucosylated (FUT8 knock-out CHO)
binding result [1]: no binding
EC50 [2]: 0.103 nM
ADCC EC50 (nM), F98 EGFRvIII cells with PBMC [4]: 0.106 nM
Kd [5]: 131 nM
koff [5]: 0.0087 s⁻¹
kon [5]: 66000 M⁻¹ s⁻¹
EC50 [7]: 4.13 nM
binding result [10]: no binding

B3: SD-837152-afuc (antibody, V domains shown)
VH: QVQLVQSGAEVKKPGASVKVSCKASGYTFTSYDINWVRQAPGQRLEWMGWIFPGDGTSKYNEKFKGRVTITRDTSASTAYMELSSLRSEDTAVYYCARRLGSHWGQGTLVTVSS
VL: DIVLTQSPASLAVSPGQRATITCKASQSVDSDGDSYMNWYQQKPGQPPKLLIYGASNLESGVPARFSGSGSGTDFTLTINPVEANDTANYYCQQSHEYPFTFGQGTKLEIK
notes: as for B2
EC50 [2]: 0.155 nM
EC50 [3]: 5.75 nM
Kd [5]: 60 nM
koff [5]: 0.0026 s⁻¹
kon [5]: 43000 M⁻¹ s⁻¹
binding result [11]: no binding
ADCC EC50 (nM), U87MG-EGFRvIII cells with PBMC [6]: 0.0036 nM
EC50 [8]: 4.98 nM
ADCC EC50 (nM), FaDu-EGFRvIII cells with PBMC [9]: 0.0058 nM
binding result [12]: no binding

B4: SD-844257-afuc (antibody, V domains shown)
VH: EVQLVQSGAEVKKPGASVKLSCKASGYTFTSYDINWVRQAPGQGLEWIGWIFPGDGTSKYAQKFQGRATLTTDTSTSTAYMELSSLRSEDTAVYYCARRLGSHWGQGTTLTVSS
VL: DIQLTQSPSSLSASVGDRVTITCKASQSVDSDGDSYMNWYQQKPGKAPKLLIYGASNLESGVPSRFSGSGSGTDFTLTISSLQPEDFATYYCQQSHEYPFTFGQGTKLEIK
notes: as for B2
binding result [1]: no binding
EC50 [2]: 0.111 nM
ADCC EC50 (nM), F98 EGFRvIII cells with PBMC [4]: 0.0738 nM
Kd [5]: 90 nM
koff [5]: 0.0048 s⁻¹
kon [5]: 53000 M⁻¹ s⁻¹
EC50 [7]: 3.85 nM
binding result [12]: no binding

B5: SD-638526-afuc (antibody, V domains shown)
VH: EVQLVQSGAEVKKPGASVKVSCKASGYTFTSYDINWVRQAPGQGLEWMGWIFPGDGTSKYAQKFQGRVTMTTDKSTSTAYMELSSLRSEDTAVYYCARRLGSHWGQGTTVTVSS
VL: DIQLTQSPSSLSASVGDRATITCKASQSVDSDGDSYMNWYQQKPGKAPKLLIYGASNLESGIPSRFSGSGSGTDFTLTISSVQPEDFATYYCQQSHEYPFTFGQGTKLEIK
notes: as for B2
binding result [1]: no binding
EC50 [2]: 0.102 nM
ADCC EC50 (nM), F98 EGFRvIII cells with PBMC [4]: 0.111 nM
Kd [5]: 122 nM
koff [5]: 0.0088 s⁻¹
kon [5]: 73000 M⁻¹ s⁻¹
EC50 [7]: 3.21 nM
binding result [10]: no binding

B6: SD-577776-afuc (antibody, V domains shown)
VH: EVQLVQSGAEVKKPGASVKLSCKASGYTFTSYDINWVRQAPGQGLEWIGWIFPGDGTSKYAQKFQGRATLTTDKSTSTAYMELSSLRSEDTAVYYCARRLGSHWGQGTTLTVSS
VL: DIQLTQSPSSLSASVGDRATITCKASQSVDSDGDSYMNWYQQKPGKAPKLLIYGASNLESGIPSRFSGSGSGTDFTLTISSVQPEDFATYYCQQSHEYPFTFGQGTKLEIK
notes: as for B2
binding result [1]: no binding
EC50 [2]: 0.122 nM
ADCC EC50 (nM), F98 EGFRvIII cells with PBMC [4]: 0.0687 nM
Kd [5]: 100 nM
koff [5]: 0.0058 s⁻¹
kon [5]: 57000 M⁻¹ s⁻¹
EC50 [7]: 3.46 nM
binding result [10]: no binding

B7: SD-787077-afuc (antibody, V domains shown)
VH: EVQLVQSGAEVKKPGASVKVSCKASGYTFTSYDINWVRQAPGQGLEWMGWIFPGDGTSKYAQKFQGRVTMTTDKSTSTAYMELSSLRSEDTAVYYCARRLGSHWGQGTTVTVSS
VL: DIQLTQSPSSLSASVGDRVTITCKASQSVDSDGDSYMNWYQQKPGKAPKLLIYGASNLESGVPSRFSGSGSGTDFTLTISSLQPEDFATYYCQQSHEYPFTFGQGTKLEIK
notes: as for B2
binding result [1]: no binding
EC50 [2]: 0.126 nM
ADCC EC50 (nM), F98 EGFRvIII cells with PBMC [4]: 0.0605 nM
Kd [5]: 108 nM
koff [5]: 0.0077 s⁻¹
kon [5]: 71000 M⁻¹ s⁻¹
EC50 [7]: 3.91 nM
binding result [12]: no binding

B8: SD-633416-afuc (antibody, V domains shown)
VH: EVQLVQSGAEVKKPGASVKVSCKASGYTFTSYDINWVRQAPGQGLEWMGWIFPGDGTSKYAQKFQGRVTMTRDTSTSTVYMELSSLRSEDTAVYYCARRLGSHWGQGTTVTVSS
VL: DIQMTQSPSSLSASVGDRVTITCKASQSVDSDGDSYMNWYQQKPGKAPKLLIYGASNLESGVPSRFSGSGSGTDFTLTISSLQPEDFATYYCQQSHEYPFTFGQGTKLEIK
notes: as for B2
binding result [1]: no binding
EC50 [2]: 0.121 nM
ADCC EC50 (nM), F98 EGFRvIII cells with PBMC [4]: 0.289 nM
Kd [5]: 234 nM
koff [5]: 0.016 s⁻¹
kon [5]: 67000 M⁻¹ s⁻¹
EC50 [7]: 13.8 nM
binding result [10]: no binding

B9: SD-757052-afuc (antibody, V domains shown)
VH: EVQLVQSGAEVKKPGASVKLSCKASGYTFTSYDINWVRQAPGQGLEWIGWIFPGDGTSKYAQKFQGRATLTTDTSTSTAYMELSSLRSEDTAVYYCARRLGSHWGQGTTLTVSS
VL: DIQLTQSPSSLSASVGDRATITCKASQSVDSDGDSYMNWYQQKPGKAPKLLIYGASNLESGIPSRFSGSGSGTDFTLTISSVQPEDFATYYCQQSHEYPFTFGQGTKLEIK
notes: as for B2
binding result [1]: no binding
EC50 [2]: 0.112 nM
binding result [13]: no binding
ADCC EC50 (nM), F98 EGFRvIII cells with PBMC [4]: 0.0562 nM
Kd [5]: 105 nM
koff [5]: 0.006 s⁻¹
kon [5]: 57000 M⁻¹ s⁻¹
EC50 [7]: 4.17 nM

B10: SD-710726-afuc (antibody, V domains shown)
VH: EVQLVQSGAEVKKPGASVKLSCKASGYTFTSYDINWVRQAPGQGLEWIGWIFPGDGTSKYAQKFQGRATLTTDKSTSTAYMELSSLRSEDTAVYYCARRLGSHWGQGTTLTVSS
VL: DIQLTQSPSSLSASVGDRVTITCKASQSVDSDGDSYMNWYQQKPGKAPKLLIYGASNLESGVPSRFSGSGSGTDFTLTISSLQPEDFATYYCQQSHEYPFTFGQGTKLEIK
notes: as for B2
binding result [1]: no binding
EC50 [2]: 0.137 nM
binding result [13]: no binding
ADCC EC50 (nM), F98 EGFRvIII cells with PBMC [4]: 0.0168 nM
Kd [5]: 86 nM
koff [5]: 0.0043 s⁻¹
kon [5]: 51000 M⁻¹ s⁻¹
EC50 [7]: 4.02 nM

B11: SD-741396-afuc (antibody, V domains shown)
VH: EVQLVQSGAEVKKPGASVKVSCKASGYTFTSYDINWVRQAPGQGLEWMGWIFPGDGTSKYAQKFQGRVTMTTDTSTSTAYMELSSLRSEDTAVYYCARRLGSHWGQGTTVTVSS
VL: DIQLTQSPSSLSASVGDRATITCKASQSVDSDGDSYMNWYQQKPGKAPKLLIYGASNLESGIPSRFSGSGSGTDFTLTISSVQPEDFATYYCQQSHEYPFTFGQGTKLEIK
notes: as for B2
binding result [1]: no binding
EC50 [2]: 0.091 nM
binding result [13]: no binding
ADCC EC50 (nM), F98 EGFRvIII cells with PBMC [4]: 0.123 nM
Kd [5]: 159 nM
koff [5]: 0.011 s⁻¹
kon [5]: 66000 M⁻¹ s⁻¹
EC50 [7]: 5.12 nM
